Data: US20210363266A1 (JIANGSU HENGRUI MEDICINE, published 2021)
Read-outs that look alike come from different tables or passages of the source. Each block holds one binder with its values, some of them ahead of it.

Columns and labels:
[1] = molecular target: T1, human 4-1BB His protein (Sinobiological, Beijing #10041-H08H) (human, UniProt Q07011 24-186, biotinylated in the capture ELISA (sites not given)); assay: SPR Biacore T200, antibody amine-coupled, 4-1BB His as analyte, 1:1 model
T1 construct: Bought protein; also called biotinylated 4-1BB-his protein; not shown: His tag
Experimental: (§1) The recombinant anti-4-1BB antibodies to be tested of the present application were covalently linked to CMS (GE) chip by NHS standard amino coupling method with a kit available from Biacore. Then, a series of gradient concentrations of human 4-1BB His protein (Sinobiological, Beijing #10041-H08H) diluted in the same buffer were injected at a flow rate of 10 μL/min. Regeneration was performed with regeneration reagents provided in the kit. Antigen-antibody binding kinetics were followed for 3 minutes and dissociation kinetics were followed for 10 minutes. The resulting data were analyzed using 1:1 (Langmuir) binding model with BIAevaluation software available from GE.

[2] = molecular target: T1, human 4-1BB His protein …; assay: as above; remark: listed apart in the source
Experimental: as §1

[3] = molecular target: T1, human 4-1BB His protein …; assay: capture ELISA, antibody captured, biotinylated 4-1BB-his
Experimental: The goat anti-mouse IgG secondary antibody (Jackson Immuno Research, cat #115-006-071) was diluted to a concentration of 2 μg/ml with PBS buffer, pH 7.4, added into a 96-well microtiter plate at 100 μl/well, and placed in an incubator at 37° C. for 2 hours. The plate was washed once with PBST, 200 μl/well of 5% skim milk (skim milk powder, Bright Dairy) blocking solution diluted with PBST was added, and incubated at 37° C. for 2 hours or at 4° C. overnight (16-18 hours) for blocking. After the blocking was finished, the blocking solution was discarded and the plate was washed 4 times with PBST.
The test mouse sera or antibodies were diluted to various concentrations with 5% NHS sample dilution solution (2.5% skim milk in PBST), incubated at room temperature for 40 minutes, added into the plate at 100 μl/well, and incubated at 37° C. for 40 minutes. After the incubation, the plate was washed 4 times with PBST, 100 μl/well of the biotinylated 4-1BB-his protein (Sinobiological, Beijing #10041-H08H) diluted with the sample dilution solution was added, and incubated at 37° C. for 40 minutes. After the incubation, the plate was washed 4 times with PBST, 100 μl/well of HRP-labeled streptavidin (Jackson Immuno Research, cat #016-030-084) diluted with PBST was added, and incubated at 37° C. for 40 minutes. The plate was washed 4 times with PBST, 100 μl/well of TMB chromogenic substrate (Huzhou Innoreagents Biotechnology Co., Ltd.) was added, incubated at room temperature for 10-15 min in the dark, and 50 μl/well 1M H₂SO₄ was added to terminate the reaction. The absorbance was read at 450 nm under a microplate reader (Beijing Prang New Technology Co., Ltd., Model DNM-9602) and the resulting data were analyzed. The capture ELISA results of three hybridoma mouse antibodies and the Pfizer reference antibody MOR7480 and the BMS reference antibody Urelumab were shown in FIG. 1.

[4] = molecular target: T1, human 4-1BB His protein …; assay: blocking ELISA: 4-1BB-his coated, antibody varied, competitor 4-1BBL-Fc at 0.8 ng/ml
Experimental: The 4-1BB-his protein was diluted to a concentration of 2 μg/ml with a carbonate buffer pH 9.6, and added into a 96-well microtiter plate at a volume of 100 μl/well, and placed in an incubator at 37° C. for 2 hours. The plate was washed once with PBST, 200 μl/well of 5% skim milk (skim milk powder, Bright Dairy) blocking solution diluted with PBST was added, and incubated at 37° C. for 2 hours or at 4° C. overnight (16-18 hours) for blocking. After the blocking was finished, the blocking solution was discarded and the plate was washed 4 times with PBST.
The test mouse sera or antibodies and internal control 4-1BBL were diluted to various concentrations with a sample diluent solution (2.5% skim milk in PBST), added into a plate at 100 μl/well, and incubated in an incubator at 37° C. for 40 minutes. After the incubation, the plate was washed 4 times with PBST, 100 μl/well of 0.8 ng/ml 4-1BBL-Fc (Acro, #41L-H5257) protein diluted with a sample dilution solution was added, and incubated at 37° C. for 40 minutes. […] The absorbance was read at 450 nm under a microplate reader (Beijing Prang New Technology Co., Ltd., Model DNM-9602) and the resulting data were analyzed. […]

[5] = molecular target: human 4-1BB on the reporter cell strain HEK293F-h4-1BB-NFkB (human, UniProt Q07011 24-255); assay: cell-based or functional assay
Chain of human 4-1BB on the reporter cell strain HEK293F-h4-1BB-NFkB (Q07011 24-255): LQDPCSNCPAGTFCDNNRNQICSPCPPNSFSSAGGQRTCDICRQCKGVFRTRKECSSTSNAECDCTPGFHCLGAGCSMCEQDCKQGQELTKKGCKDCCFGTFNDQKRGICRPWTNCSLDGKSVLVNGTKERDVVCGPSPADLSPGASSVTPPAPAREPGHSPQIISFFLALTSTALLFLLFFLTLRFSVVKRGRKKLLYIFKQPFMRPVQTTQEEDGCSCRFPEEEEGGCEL

[6] = molecular target: T1, human 4-1BB His protein …; assay: SPR Biacore T200

- Kd [1]: 1950 pM
- koff [1]: 0.00663 s⁻¹
- kon [1]: 3.39e+06 M⁻¹ s⁻¹
B1: humanized antibody huB1E7 (VH-c heavy chain and VL-c light chain) (antibody, human IgG2, kappa, V domains shown)
VH: EVQLVQSGAEVKKPGSSVKVSCKASGYTFTSYGLNWVRQAPGQGLEWMGYINPGSGYTKYNEKFEGRVTITADKSTSTAYMELSSLRSEDTAVYYCARWGLGRNWNFAVWGQGTLVTVSS
VL: DIVMTQSPDSLAVSLGERATINCRASESVDSYGNTFMHWYQQKPGQPPKLLIYRASNLESGVPDRFSGSGSGTDFTLTISSLQAEDVAVYYCQQSNEDPLTFGQGTKLEIKR
notes: also called huB1E7-IgG1

- Kd [2]: 417 pM
- koff [2]: 0.000336 s⁻¹
- kon [2]: 805000 M⁻¹ s⁻¹
- Kd [1]: 417 pM
- koff [1]: 0.000336 s⁻¹
- kon [1]: 805000 M⁻¹ s⁻¹
- EC50 [3]: 0.084 µg/mL
B2: MOR7480 (Pfizer) (antibody, V domains shown)
VH: QVQLVQSGAEVKKPGESLKISCKGSGYSFSTYWISWVRQMPGKGLEWMGKIYPGDSYTNYSPSFQGQVTISADKSISTAYLQWSSLKASDTAMYYCARGYGIFDYWGQGTLVTVSS
VL: DIELTQPPSVSVAPGQTARISCSGDNIGDQYAHWYQQKPGQAPVVVIYQDKNRPSGIPERFSGSNSGNTATLTISGTQAEDEADYYCATYTGFGSLAVFGGGTKLTVL

- EC50 [4]: 0.417 µg/mL
- EC50 [3]: 0.0559 µg/mL
- luciferase activity [5]: 965
B3: murine mAb B1A7 (antibody, V domains shown)
VH: QVTLKESGPGILQPSQTLSLTCSFSGFSLSTSGMGVGWIRQPSGKGLEWLAHIWWDDVKRYNPALKSRLTISKDTSSSQVFLKIASVDTADTATYYCAQMTSSVFAYWGQGTLVTVSA
VL: DIVLTQSPDSLAVSLGQRATISCRASESVDSYGHSFMHWYQQKPGQPPKLLIYRASNLESGIPARFSGSGSRTDFTLTINVVEADDVATYYCHQSYEEPWTFGGGTKLEIK
notes: Murine hybridoma antibody

- Kd [1]: 267 pM
- koff [1]: 0.00263 s⁻¹
- kon [1]: 9.85e+06 M⁻¹ s⁻¹
- fold affinity against the reference antibody MOR7480 [6]: ~2 fold
B4: humanized antibody huB1E10 (VH-c heavy chain and VL-c light chain) (antibody, human IgG2, kappa, V domains shown)
VH: EVQLVESGGGVVQPGRSLRLSCAASGFTFGDYYMYWVRQAPGKGLEWVATISEGGSYTYYPDNVKGRFTISRDNAKNTLYLQMNSLRAEDTAVYYCARYYSKALYAMDYWGRGTLVTVSS
VL: EIVLTQSPATLSLSPGERATLSCRASKSVSTSGFSYIHWYQQKPGQPPRLLIYTASNLESGVPARFSGSGSGTDFTLTISSLEPEDFAVYYCQHSRELPLTFGQGTKLEVKR
notes: also called huB1E10-IgG1

- EC50 [3]: 0.881 µg/mL
- luciferase activity [5]: 2520
B5: murine mAb B1E10 (antibody, V domains shown)
VH: EVQLVESGGGLVEPGGSLKLSCAASGFTFGDYYMYWVRQTPEKRLEWVATISDGGSYTYYPDNVKGRFTISRDNAKNSLDLQMSHLKSEDTAMYYCARYYSKALYAMDYWGRGTSVTVSS
VL: DIVLTQSPASLAVSLGQRATLSCRASKSVSTSGFSYIHWYQQKPGQPPKLLIYTASNLESGVPARFSGSGSGTDFTLNIHPVEEEDAATYYCQHSRELPLTFGAGTKLEVK
notes: Murine hybridoma antibody

- Kd [2]: 423 pM
- koff [2]: 0.000542 s⁻¹
- kon [2]: 1.28e+06 M⁻¹ s⁻¹
B6: chimeric antibody ChB1E10 (antibody, V domains shown)
VH: B5 VH
VL: B5 VL

- EC50 [4]: 0.592 µg/mL
- EC50 [3]: 0.332 µg/mL
- luciferase activity [5]: 1100
B7: murine mAb B1E7 (antibody, V domains shown)
VH: EVQLQQSGAELVRAGSSVEMSCKASGYTFTSYGLNWVKQRPGQGLEWIGYINPGSGYTKYNEKFEGKTTLTVDKSSSTVYMQLRSLTSEDSAVYFCARWGLGRNWNFAVWGTGTTVTVSS
VL: DIVLTQSPASLAVSLGQRATMSCRASESVDSYGNTFMHWYQQKPGQPPKLLIYRASNLESGIPARFSGSGSGTDFTLTINPVEADDVATYYCQQSNEDPLTFGSGTKLEIK
notes: Murine hybridoma antibody

- Kd [2]: 1480 pM
- koff [2]: 0.006 s⁻¹
- kon [2]: 4.05e+06 M⁻¹ s⁻¹
B8: chimeric antibody ChB1E7 (antibody, V domains shown)
VH: B7 VH
VL: B7 VL
